Laboratory results reported in article PMC7598594 (Toxins, 2020).

B1: JSI-C7 (VHH)
VHH: SGGGLMQAGGSLRLACAASGRPFSTYFMGWFRQAPGKERDFVAVIDWSDGSTDYADSVKGRFTISRDNAKNTVYLQMNSLKPEDTAVYYCAARGSYLYTWPLEPDEYDYWGQGTQVTVSS
notes: source: E. coli, purified
B2: JSI-G9 (VHH)
VHH: SGGGMVQAGGSLRLSCAASGRTASLDGMGWFRQAPGKEREFVGSINWRIGTTYYIDSVQGRFTISRDNARNTVYLQMISLKPEDTAVYYCAARLRRTDLISSPASYEYWGHGTQVTVSS
notes: source: E. coli, purified
B3: JLE-G6 (VHH)
VHH: QLQLVETGGGLVKPGGSLRLSCVVSGFTFDDYRMAWVRQAPGKELEWVSSIDSWSINTYYEDSVKGRFTISTDNAKNTLYLQMSSLKPEDTAVYYCAAEDRLGVPTINAHPSKYDYNYWGQGTQVTVSS
notes: source: E. coli, purified
B4: JLG-G12 (VHH)
VHH: QLQLVETGGGLVQAGGSLRLSCAASGRTFSSYAVGWFRQAPGKEREFVAAISWSGSYAYYADSVKGRFTISRDNAKNTVYLQMNSLKPEDTAVYYCNGDLEGYSNHETGDYWGQGTQVTVSS
notes: source: E. coli, purified
B5: JSI-A4 (VHH)
VHH: SGGGLVQAGGSLRLSCAASGLTFSDTAVGWFRQAPGKEREFVAAAVIWSGVNTRYADSVRGRFTISRDSAKNTVYLQMNTLKPEDTAIYYCAAGRGAAAFPTDRSQYVYWGQGTQVTVSS
notes: source: E. coli, purified
B6: JSI-F6 (VHH)
VHH: SGGGLVQAGGSLRVSCAASGRTFSTYAMGWFRQAPGKEREFVAAITKSGDYAYYADAVKGRFTISRDNAKNTVSLQMNSLKDEDTAVYYCAAHRSPLYSASVYDRDYDYWGQGTQVTVSS
notes: source: E. coli, purified
B7: JLF-H5 (VHH)
VHH: QVQLVESGGGSVQPGGSLRLSCVASGFTFTNYAMAWVRQVSGKGLEGVAAISSEGFIYIPDSVKGRFTISRDNAKNTVYLQMDNLQSEDTAIYHCAAVDWKRVAAMNSYNMDYWGKGTPVTVSA
notes: source: E. coli, purified
B8: JSI-F2 (VHH)
VHH: SGGGLVQAGGSLRLSCAASGGTVSKYPMGWFRQAPGQEREFVAALSRDTDYTYYADSVKGRFTISRDNAKNTVYLQMNSLKREDTALYYCAAGSTDLKYSASVYADDYDYWGQGTQVTVSS
notes: source: E. coli, purified
B9: JSI-H9 (VHH)
VHH: SGGGSVQAGGSLGLTCQGSGDAVRRGWFRQAPGKEREFVAAITSYGGTTFYADSVKGRFTVSRDNAKNTVYLQMISLKPEDTAVYYCAAASRPTGWPYEYDVWGQGTQVTVSS
notes: source: E. coli, purified

Columns and labels:
Test in all cases: ELISA
Settings in all cases: both partners purified
[1] = biological target: T1, light chain of BoNT/E1 (LC/E) (Clostridium botulinum, BoNT/E subtype …, UniProt Q00496)
T1 construct: source: E. coli BL21(DE3), purified (Ni-NTA, Streptactin, SEC)

[2] = biological target: T2, carboxyl terminal domain of the BoNT/E heavy chain (HCE) (Clostridium botulinum, BoNT/E (subtype …))
[3] = biological target: T1, light chain of BoNT/E1 (LC/E); remark: listed apart in the source
[4] = biological target: T2, carboxyl terminal domain of the BoNT/E …; remark: listed apart in the source

T1 sequence (Q00496 2-403): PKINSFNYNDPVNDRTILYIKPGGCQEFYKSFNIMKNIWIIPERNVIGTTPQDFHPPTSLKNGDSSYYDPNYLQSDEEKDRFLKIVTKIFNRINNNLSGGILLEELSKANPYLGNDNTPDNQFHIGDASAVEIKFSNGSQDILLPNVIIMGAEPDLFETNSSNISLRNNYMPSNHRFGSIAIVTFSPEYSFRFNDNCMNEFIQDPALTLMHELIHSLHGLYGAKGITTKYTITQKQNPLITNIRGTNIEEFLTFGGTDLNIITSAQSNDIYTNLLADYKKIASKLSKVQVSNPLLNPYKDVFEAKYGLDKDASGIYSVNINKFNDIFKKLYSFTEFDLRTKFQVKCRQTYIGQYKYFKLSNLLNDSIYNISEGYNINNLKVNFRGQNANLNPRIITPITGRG

Binder | binding result [1] | other results
B1 | no binding (tested: 125 nM) | 
B2 | no binding (tested: 125 nM) | 
B3 |  | EC50 [2]: 3 nM
B4 |  | EC50 [3]: 2 nM
B5 | no binding (tested: 125 nM) | 
B6 | no binding (tested: 125 nM) | EC50 [4]: 3 nM
B7 |  | EC50 [3]: 10 nM
B8 | no binding (tested: 125 nM) | EC50 [4]: 2 nM
B9 | no binding (tested: 125 nM) | 
